Test results as given in patent US20230272086A1 (CHIA TAI TIANQING PHARMACEUTICAL GROUP, published 2023).

Target: T1, recombinant protein containing hST2 extracellular domain with mouse antibody heavy chain Fc tag (hST2-ECD-mFc) (human)
T1 construct: Used for SPR and for ELISA of chimeric and humanized antibodies; also called human ST2 antigen
T1 chain: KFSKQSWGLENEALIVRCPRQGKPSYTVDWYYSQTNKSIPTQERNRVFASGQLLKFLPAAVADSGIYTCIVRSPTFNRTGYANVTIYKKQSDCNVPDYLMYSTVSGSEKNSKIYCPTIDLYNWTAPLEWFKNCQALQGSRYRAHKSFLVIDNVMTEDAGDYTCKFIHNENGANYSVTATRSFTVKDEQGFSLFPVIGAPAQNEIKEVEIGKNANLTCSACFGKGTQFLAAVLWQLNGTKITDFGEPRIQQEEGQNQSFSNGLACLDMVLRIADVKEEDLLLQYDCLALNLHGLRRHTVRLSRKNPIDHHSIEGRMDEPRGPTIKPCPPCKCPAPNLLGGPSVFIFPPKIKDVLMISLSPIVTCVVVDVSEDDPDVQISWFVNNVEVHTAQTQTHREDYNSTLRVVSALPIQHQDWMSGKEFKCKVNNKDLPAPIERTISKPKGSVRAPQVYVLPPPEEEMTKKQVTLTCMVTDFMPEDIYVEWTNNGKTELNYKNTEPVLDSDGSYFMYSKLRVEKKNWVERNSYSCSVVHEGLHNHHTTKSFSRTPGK
Experiment: ELISA, plate coated with hST2-ECD-mFc, antibody heated at 72 °C for 5 min; antibody heated at 72° C. for 5 min (Heated column, not the unheated 0.1428 nM)
Procedure: The anti-ST2 antibodies were diluted with PBS buffer to a concentration of 1.5 mg/mL. After being treated at 72° C. for 5 min, the samples were assayed by ELISA for their binding activity for an antigen The ELISA procedure is as follows: A 96-well plate was coated with 2 µg/mL hST2-ECD-mFc as the antigen at 100 µL/well and incubated at 4° C. overnight. After the antigen not adsorbed was well washed off, the non-specific binding sites were blocked with a blocking buffer (PBST containing 1% bovine serum albumin). After the plate was washed three times with a washing buffer (PBST, PBS containing 0.05% (v/v) Tween 20), the anti-ST2 antibodies (serially diluted 3-fold from an initial concentration of 1.5 µg/mL to 8 concentrations) were added at 100 µL/well, and the plate was incubated at 37° C. for 1 h. […] After the plate was incubated at room temperature for 5 min, a stop solution (2 N H₂SO₄) was added to stop the reactions. The signals were read at 450 nm using a plate reader (PE, Envision). The data were analyzed using GraphPad Prism5, and the EC₅₀ values were calculated.

B1: RG6149 (antibody Ab2 in CN104334582, prepared in-house) (antibody, human IgG2, kappa, V domains shown)
VH: EVQLVQSGAEVKKPGESLKISCKGSGYSFTNYWIGWVRQMPGKGLEWMGIIYPGNSDTRFSPSFQGQVTISADKSITTAYLQWSSLKASDTAMYYCARHGTSSDYYGLDVWGQGTTVTVSS
VL: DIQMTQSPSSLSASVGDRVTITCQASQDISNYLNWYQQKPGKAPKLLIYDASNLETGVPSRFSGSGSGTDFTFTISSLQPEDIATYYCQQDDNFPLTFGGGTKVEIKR
notes: Control anti-ST2 antibody
- EC50: 1.06 nM
